Measurements as given in US20140220031A1 (Biogen, published 2014).

T1: CD154 (human, UniProt P29965 113-261, limits assumed)
T1 construct: also called CD40 ligand; CD40L
T1 sequence (looked up): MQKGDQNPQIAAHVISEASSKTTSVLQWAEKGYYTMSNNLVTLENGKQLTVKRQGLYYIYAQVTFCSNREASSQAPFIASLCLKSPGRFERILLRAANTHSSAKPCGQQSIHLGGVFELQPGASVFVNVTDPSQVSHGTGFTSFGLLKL


target: T1, CD154; assay: ELISA-based competitive binding assay; unlabeled Fab against biotin-labeled 5c8 Fab competitor

Binder	ELISA fold-improvement over wildtype [fold over wildtype]
5c8 Fab Mutant #1 (heavy chain T30H) (Fab, V domains shown, Fab fragment) VH: QVQLVQSGAEVVKPGASVKLSCKASGYIFHSYYMYWVKQAPGQGLEWIGEINPSNGDTNFNEKFKSKATLTVDKSASTAYMELSSLRSEDTAVYYCTRSDGRNDMDSWGQGTLVTVSS VL: DIVLTQSPATLSVSPGERATISCRASQRVSSSTYSYMHWYQQKPGQPPKLLIKYASNLESGVPARFSGSGSGTDFTLTISSVEPEDFATYYCQHSWEIPPTFGGGTKLEIK	2.3
5c8 Fab Mutant #12 (heavy chain N59D) (Fab, V domains shown, also called Asn59Asp) VH: QVQLVQSGAEVVKPGASVKLSCKASGYIFTSYYMYWVKQAPGQGLEWIGEINPSNGDTDFNEKFKSKATLTVDKSASTAYMELSSLRSEDTAVYYCTRSDGRNDMDSWGQGTLVTVSS VL: DIVLTQSPATLSVSPGERATISCRASQRVSSSTYSYMHWYQQKPGQPPKLLIKYASNLESGVPARFSGSGSGTDFTLTISSVEPEDFATYYCQHSWEIPPTFGGGTKLEIK	0.13
5c8 Fab Mutant #16 (heavy chain T30H; light chain S26D/Q27E) (Fab, V domains shown, Fab fragment) VH: QVQLVQSGAEVVKPGASVKLSCKASGYIFHSYYMYWVKQAPGQGLEWIGEINPSNGDTNFNEKFKSKATLTVDKSASTAYMELSSLRSEDTAVYYCTRSDGRNDMDSWGQGTLVTVSS VL: DIVLTQSPATLSVSPGERATISCRADERVSSSTYSYMHWYQQKPGQPPKLLIKYASNLESGVPARFSGSGSGTDFTLTISSVEPEDFATYYCQHSWEIPPTFGGGTKLEIK	5.8
5c8 Fab Mutant #14 (light chain S26D/Q27E) (Fab, V domains shown, Fab fragment; also called double mutant) VH: QVQLVQSGAEVVKPGASVKLSCKASGYIFTSYYMYWVKQAPGQGLEWIGEINPSNGDTNFNEKFKSKATLTVDKSASTAYMELSSLRSEDTAVYYCTRSDGRNDMDSWGQGTLVTVSS VL: DIVLTQSPATLSVSPGERATISCRADERVSSSTYSYMHWYQQKPGQPPKLLIKYASNLESGVPARFSGSGSGTDFTLTISSVEPEDFATYYCQHSWEIPPTFGGGTKLEIK	5.6
5c8 Fab Mutant #5 (light chain T33W) (Fab, V domains shown, Fab fragment) VH: QVQLVQSGAEVVKPGASVKLSCKASGYIFTSYYMYWVKQAPGQGLEWIGEINPSNGDTNFNEKFKSKATLTVDKSASTAYMELSSLRSEDTAVYYCTRSDGRNDMDSWGQGTLVTVSS VL: DIVLTQSPATLSVSPGERATISCRASQRVSSSWYSYMHWYQQKPGQPPKLLIKYASNLESGVPARFSGSGSGTDFTLTISSVEPEDFATYYCQHSWEIPPTFGGGTKLEIK	5
5c8 Fab Mutant #11 (heavy chain Y33F) (Fab, V domains shown) VH: QVQLVQSGAEVVKPGASVKLSCKASGYIFTSYFMYWVKQAPGQGLEWIGEINPSNGDTNFNEKFKSKATLTVDKSASTAYMELSSLRSEDTAVYYCTRSDGRNDMDSWGQGTLVTVSS VL: DIVLTQSPATLSVSPGERATISCRASQRVSSSTYSYMHWYQQKPGQPPKLLIKYASNLESGVPARFSGSGSGTDFTLTISSVEPEDFATYYCQHSWEIPPTFGGGTKLEIK	0.05
5c8 Fab Mutant #7 (light chain Q27E) (Fab, V domains shown, Fab fragment) VH: QVQLVQSGAEVVKPGASVKLSCKASGYIFTSYYMYWVKQAPGQGLEWIGEINPSNGDTNFNEKFKSKATLTVDKSASTAYMELSSLRSEDTAVYYCTRSDGRNDMDSWGQGTLVTVSS VL: DIVLTQSPATLSVSPGERATISCRASERVSSSTYSYMHWYQQKPGQPPKLLIKYASNLESGVPARFSGSGSGTDFTLTISSVEPEDFATYYCQHSWEIPPTFGGGTKLEIK	6.3
5c8 Fab Mutant #13 (heavy chain N59L) (Fab, V domains shown, also called Asn59Leu) VH: QVQLVQSGAEVVKPGASVKLSCKASGYIFTSYYMYWVKQAPGQGLEWIGEINPSNGDTLFNEKFKSKATLTVDKSASTAYMELSSLRSEDTAVYYCTRSDGRNDMDSWGQGTLVTVSS VL: DIVLTQSPATLSVSPGERATISCRASQRVSSSTYSYMHWYQQKPGQPPKLLIKYASNLESGVPARFSGSGSGTDFTLTISSVEPEDFATYYCQHSWEIPPTFGGGTKLEIK	0.01
5c8 Fab Mutant #25 (heavy chain T30H/Y33W; light chain S26D/Q27E/T33W) (Fab, V domains shown, Fab fragment; also called combination 5 point mutation (assigned)) VH: QVQLVQSGAEVVKPGASVKLSCKASGYIFHSYWMYWVKQAPGQGLEWIGEINPSNGDTNFNEKFKSKATLTVDKSASTAYMELSSLRSEDTAVYYCTRSDGRNDMDSWGQGTLVTVSS VL: DIVLTQSPATLSVSPGERATISCRADERVSSSWYSYMHWYQQKPGQPPKLLIKYASNLESGVPARFSGSGSGTDFTLTISSVEPEDFATYYCQHSWEIPPTFGGGTKLEIK	5.6
5c8 Fab Mutant #23 (heavy chain Y33W; light chain S26D/Q27E) (Fab, V domains shown, Fab fragment) VH: QVQLVQSGAEVVKPGASVKLSCKASGYIFTSYWMYWVKQAPGQGLEWIGEINPSNGDTNFNEKFKSKATLTVDKSASTAYMELSSLRSEDTAVYYCTRSDGRNDMDSWGQGTLVTVSS VL: DIVLTQSPATLSVSPGERATISCRADERVSSSTYSYMHWYQQKPGQPPKLLIKYASNLESGVPARFSGSGSGTDFTLTISSVEPEDFATYYCQHSWEIPPTFGGGTKLEIK	5.2
5c8 Fab Mutant #8 (light chain S31V) (Fab, V domains shown) VH: QVQLVQSGAEVVKPGASVKLSCKASGYIFTSYYMYWVKQAPGQGLEWIGEINPSNGDTNFNEKFKSKATLTVDKSASTAYMELSSLRSEDTAVYYCTRSDGRNDMDSWGQGTLVTVSS VL: DIVLTQSPATLSVSPGERATISCRASQRVSVSTYSYMHWYQQKPGQPPKLLIKYASNLESGVPARFSGSGSGTDFTLTISSVEPEDFATYYCQHSWEIPPTFGGGTKLEIK	0.02
5c8 Fab Mutant #2 (heavy chain Y33W) (Fab, V domains shown, Fab fragment) VH: QVQLVQSGAEVVKPGASVKLSCKASGYIFTSYWMYWVKQAPGQGLEWIGEINPSNGDTNFNEKFKSKATLTVDKSASTAYMELSSLRSEDTAVYYCTRSDGRNDMDSWGQGTLVTVSS VL: DIVLTQSPATLSVSPGERATISCRASQRVSSSTYSYMHWYQQKPGQPPKLLIKYASNLESGVPARFSGSGSGTDFTLTISSVEPEDFATYYCQHSWEIPPTFGGGTKLEIK	7
5c8 Fab Mutant #6 (light chain S26D) (Fab, V domains shown, Fab fragment) VH: QVQLVQSGAEVVKPGASVKLSCKASGYIFTSYYMYWVKQAPGQGLEWIGEINPSNGDTNFNEKFKSKATLTVDKSASTAYMELSSLRSEDTAVYYCTRSDGRNDMDSWGQGTLVTVSS VL: DIVLTQSPATLSVSPGERATISCRADQRVSSSTYSYMHWYQQKPGQPPKLLIKYASNLESGVPARFSGSGSGTDFTLTISSVEPEDFATYYCQHSWEIPPTFGGGTKLEIK	2.6
5c8 Fab Mutant #9 (light chain T33D) (Fab, V domains shown) VH: QVQLVQSGAEVVKPGASVKLSCKASGYIFTSYYMYWVKQAPGQGLEWIGEINPSNGDTNFNEKFKSKATLTVDKSASTAYMELSSLRSEDTAVYYCTRSDGRNDMDSWGQGTLVTVSS VL: DIVLTQSPATLSVSPGERATISCRASQRVSSSDYSYMHWYQQKPGQPPKLLIKYASNLESGVPARFSGSGSGTDFTLTISSVEPEDFATYYCQHSWEIPPTFGGGTKLEIK	0.22
5c8 Fab Mutant #4 (heavy chain S54N) (Fab, V domains shown, Fab fragment) VH: QVQLVQSGAEVVKPGASVKLSCKASGYIFTSYYMYWVKQAPGQGLEWIGEINPNNGDTNFNEKFKSKATLTVDKSASTAYMELSSLRSEDTAVYYCTRSDGRNDMDSWGQGTLVTVSS VL: DIVLTQSPATLSVSPGERATISCRASQRVSSSTYSYMHWYQQKPGQPPKLLIKYASNLESGVPARFSGSGSGTDFTLTISSVEPEDFATYYCQHSWEIPPTFGGGTKLEIK	2
5c8 Fab Mutant #18 (heavy chain T30H; light chain S26D/Q27E/T33W) (Fab, V domains shown, Fab fragment) VH: QVQLVQSGAEVVKPGASVKLSCKASGYIFHSYYMYWVKQAPGQGLEWIGEINPSNGDTNFNEKFKSKATLTVDKSASTAYMELSSLRSEDTAVYYCTRSDGRNDMDSWGQGTLVTVSS VL: DIVLTQSPATLSVSPGERATISCRADERVSSSWYSYMHWYQQKPGQPPKLLIKYASNLESGVPARFSGSGSGTDFTLTISSVEPEDFATYYCQHSWEIPPTFGGGTKLEIK	5.4
5c8 Fab Mutant #24 (heavy chain T30H/Y33W; light chain S26D/Q27E) (Fab, V domains shown, Fab fragment) VH: QVQLVQSGAEVVKPGASVKLSCKASGYIFHSYWMYWVKQAPGQGLEWIGEINPSNGDTNFNEKFKSKATLTVDKSASTAYMELSSLRSEDTAVYYCTRSDGRNDMDSWGQGTLVTVSS VL: DIVLTQSPATLSVSPGERATISCRADERVSSSTYSYMHWYQQKPGQPPKLLIKYASNLESGVPARFSGSGSGTDFTLTISSVEPEDFATYYCQHSWEIPPTFGGGTKLEIK	8
5c8 Fab Mutant #17 (heavy chain Y33W; light chain S26D/Q27E/T33W) (Fab, V domains shown, Fab fragment) VH: QVQLVQSGAEVVKPGASVKLSCKASGYIFTSYWMYWVKQAPGQGLEWIGEINPSNGDTNFNEKFKSKATLTVDKSASTAYMELSSLRSEDTAVYYCTRSDGRNDMDSWGQGTLVTVSS VL: DIVLTQSPATLSVSPGERATISCRADERVSSSWYSYMHWYQQKPGQPPKLLIKYASNLESGVPARFSGSGSGTDFTLTISSVEPEDFATYYCQHSWEIPPTFGGGTKLEIK	5.9
5c8 Fab Mutant #10 (light chain Y54E) (Fab, V domains shown) VH: QVQLVQSGAEVVKPGASVKLSCKASGYIFTSYYMYWVKQAPGQGLEWIGEINPSNGDTNFNEKFKSKATLTVDKSASTAYMELSSLRSEDTAVYYCTRSDGRNDMDSWGQGTLVTVSS VL: DIVLTQSPATLSVSPGERATISCRASQRVSSSTYSYMHWYQQKPGQPPKLLIKEASNLESGVPARFSGSGSGTDFTLTISSVEPEDFATYYCQHSWEIPPTFGGGTKLEIK	0.06
5c8 Fab Mutant #15 (light chain S26D/Q27E/T33W) (Fab, V domains shown, Fab fragment) VH: QVQLVQSGAEVVKPGASVKLSCKASGYIFTSYYMYWVKQAPGQGLEWIGEINPSNGDTNFNEKFKSKATLTVDKSASTAYMELSSLRSEDTAVYYCTRSDGRNDMDSWGQGTLVTVSS VL: DIVLTQSPATLSVSPGERATISCRADERVSSSWYSYMHWYQQKPGQPPKLLIKYASNLESGVPARFSGSGSGTDFTLTISSVEPEDFATYYCQHSWEIPPTFGGGTKLEIK	3.8

target: T1, CD154; assay: assay not given

Binder	fold higher affinity compared to the wild type [fold over wild type]
5c8 Fab Mutant #25 (heavy chain T30H/Y33W; light chain S26D/Q27E/T33W) (Fab, V domains shown, Fab fragment; also called combination 5 point mutation (assigned)) VH: QVQLVQSGAEVVKPGASVKLSCKASGYIFHSYWMYWVKQAPGQGLEWIGEINPSNGDTNFNEKFKSKATLTVDKSASTAYMELSSLRSEDTAVYYCTRSDGRNDMDSWGQGTLVTVSS VL: DIVLTQSPATLSVSPGERATISCRADERVSSSWYSYMHWYQQKPGQPPKLLIKYASNLESGVPARFSGSGSGTDFTLTISSVEPEDFATYYCQHSWEIPPTFGGGTKLEIK	25

target: T1, CD154; assay: assay not named in the sentence (mutants characterized by competitive ELISA)

Binder	fold higher affinity compared to the wildtype 5c8 Fab [fold over wildtype]
5c8 Fab Mutant #14 (light chain S26D/Q27E) (Fab, V domains shown, Fab fragment; also called double mutant) VH: QVQLVQSGAEVVKPGASVKLSCKASGYIFTSYYMYWVKQAPGQGLEWIGEINPSNGDTNFNEKFKSKATLTVDKSASTAYMELSSLRSEDTAVYYCTRSDGRNDMDSWGQGTLVTVSS VL: DIVLTQSPATLSVSPGERATISCRADERVSSSTYSYMHWYQQKPGQPPKLLIKYASNLESGVPARFSGSGSGTDFTLTISSVEPEDFATYYCQHSWEIPPTFGGGTKLEIK	9
